Here are results for 1 molecule from patent publication US11702475B2, “Cysteine engineered fibronectin type III domain binding molecules” (Janssen Biotech, Inc., priority 2013, dated 2023).

Broadly, the EC50 is the concentration that produces a half-maximal response. High values mean a less potent agent, low ones a more potent agent. As usually defined, the IC50 is the concentration that gives 50% inhibition. Low values mean inhibition by little substance, high ones a need for much substance.

One assay addresses T1, EGFR on A431 cells (Homo sapiens, UniProt P00533).
T1 construct: A431 cells (American Type Culture Collection, cat. #CRL-1555) over-express EGFR; host or cells: A431
Description: A431 cell binding assay. The conditions noted are these: 1 hour room temperature. The procedure:
To assess the ability of different FN3 domains to bind EGFR in a more physiological context, their ability to bind A431 cells was measured. A431 cells (American Type Culture Collection, cat. #CRL-1555) over-express EGFR with ˜2×10^6 receptors per cell. Cells were plated at 5,000/well in opaque black 96-well plates and allowed to attach overnight at 37° C., in a humidified 5% CO2 atmosphere. FN3 domain-expressing bacterial lysates were diluted 1,000-fold into FACS stain buffer (Becton Dickinson) and incubated for 1 hour at room temperature in triplicate plates. Lysates were removed and cells were washed 3 times with 150 μL/well of FACS stain buffer. Cells were incubated with 50 μL/well of anti-penta His-Alexa488 antibody conjugate (Qiagen) diluted 1:100 in FACS stain buffer for 20 minutes at room temperature. Cells were washed 3 times with 150 μL/well of FACS stain buffer, after which wells were filled with 100 μL of FACS stain buffer and read for fluorescence at 488 nm using an Acumen eX3 reader. […]
A431 cells were plated at 5,000/well in opaque black 96-well plates and allowed to attach overnight at 37° C., in a humidified 5% CO2 atmosphere. […] Cells were washed 3 times with 150 μL/well of FACS stain buffer, after which wells were filled with 100 μL of FACS stain buffer and read for fluorescence at 488 nm using an Acumen eX3 reader. […]

The test system of the next assay is NCI-H292 cells. The assay can be described thus: NCI-H292 growth assay. The assay is classed as cell-based, human. The conditions noted are these: 120 hours, CellTiter-Glo. Here is the method: Inhibition of EGFR-dependent cell growth was assessed by measuring viability of the EGFR over-expressing human tumor cell lines, NCI-H292 and NCI-H322 (American Type Culture Collection, cat. #CRL-1848 & #CRL-5806, respectively), following exposure to EGFR-binding FN3 domains. Cells were plated at 500 cells/well (NCI-H292) or 1,000 cells/well (NCI-H322) in opaque white 96-well tissue culture-treated plates (Nunc) in 1004/well of RPMI medium (Gibco) containing GlutaMAX™ and 10 mM HEPES, supplemented with 10% heat inactivated fetal bovine serum (Gibco) and 1% penicillin/streptomycin (Gibco), and allowed to attach overnight at 37° C. in a humidified 5% CO2 atmosphere. Cells were treated by addition of 54/well of phosphate-buffered saline (PBS) containing a concentration range of EGFR-binding FN3 domains. […] Viable cells were detected by addition of 754/well of CellTiter-Glo® reagent (Promega), followed by mixing on a plate shaker for 2 minutes, and incubation in the dark at room temperature for a further 10 minutes. Plates were read on a SpectraMax M5 plate reader (Molecular Devices) set to luminescence mode, with a read time of 0.5 seconds/well against a blank of medium only. […] IC50 values were determined by fitting data to the equation for a sigmoidal dose response with variable slope using GraphPad Prism 4 (GraphPad Software).
(Cellular ATP, detected with luciferase, serves as a proxy for viable cell number.)

B1: P54AR4-47: EGFR-binding FN3 domain, SEQ ID NO: 20 (protein)
chain: LPAPKNLVVSEVTEDSLRLSWGYNGDHFDSFLIQYQESEKVGEAINLTVPGSERSYDLTGLKPGTEYTVSIYGVHNVYKDTNMRGLPLSAEFTT
modifications: EGFR binding FN3 domain
In the assay with EGFR on A431 cells, B1 returned a concentration for a half-maximal effect (EC50) of 8.6 nM. Also, the IC50 in the assay on NCI-H292 cells amounted to 44 nM.
